T1: mouse PD-1 (mouse, UniProt Q02242 25-167, limits assumed)
T1 construct: also called mPD-1
T1 sequence (looked up): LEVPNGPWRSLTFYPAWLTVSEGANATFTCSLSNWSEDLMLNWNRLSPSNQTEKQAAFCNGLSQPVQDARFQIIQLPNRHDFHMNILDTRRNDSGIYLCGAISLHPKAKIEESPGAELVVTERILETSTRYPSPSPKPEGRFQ


Legend:
[1] = molecular target: human PD-1 overexpressed on HEK-Blue reporter cells (human, UniProt Q15116 25-288); test: cell-based or functional assay
[2] = molecular target: human IL-12 receptor complex (human, UniProt P42701 24-662; Q99665 24-862); test: cell-based or functional assay
mouse PD-1 = molecular target: T1, mouse PD-1; test: PD-L1-Fc format, calibrated on PD-L1(wt)-Fc binding affinity
human PD-1 = molecular target: T2, human PD-1 (human, UniProt Q15116 25-167, limits assumed); test: as above
T2 construct: nivolumab is called an anti-human PD-1 antibody; also called hPD-1
T2 sequence (Q15116 25-167 limits assumed): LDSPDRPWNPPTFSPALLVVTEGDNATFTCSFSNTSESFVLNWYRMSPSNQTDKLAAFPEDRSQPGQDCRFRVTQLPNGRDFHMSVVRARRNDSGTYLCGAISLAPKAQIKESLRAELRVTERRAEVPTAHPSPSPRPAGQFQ

human PD-1 overexpressed on HEK-Blue reporter cells, sequence (Q15116 25-288): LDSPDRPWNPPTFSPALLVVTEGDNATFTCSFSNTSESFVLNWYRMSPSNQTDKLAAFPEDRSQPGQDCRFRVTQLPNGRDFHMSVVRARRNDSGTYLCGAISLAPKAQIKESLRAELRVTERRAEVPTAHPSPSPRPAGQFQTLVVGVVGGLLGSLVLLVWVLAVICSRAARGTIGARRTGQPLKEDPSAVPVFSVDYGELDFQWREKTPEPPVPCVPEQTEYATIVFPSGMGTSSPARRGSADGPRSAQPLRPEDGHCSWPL
human IL-12 receptor complex, sequence (Q99665 24-862, chain 2 of 2, other chains not shown): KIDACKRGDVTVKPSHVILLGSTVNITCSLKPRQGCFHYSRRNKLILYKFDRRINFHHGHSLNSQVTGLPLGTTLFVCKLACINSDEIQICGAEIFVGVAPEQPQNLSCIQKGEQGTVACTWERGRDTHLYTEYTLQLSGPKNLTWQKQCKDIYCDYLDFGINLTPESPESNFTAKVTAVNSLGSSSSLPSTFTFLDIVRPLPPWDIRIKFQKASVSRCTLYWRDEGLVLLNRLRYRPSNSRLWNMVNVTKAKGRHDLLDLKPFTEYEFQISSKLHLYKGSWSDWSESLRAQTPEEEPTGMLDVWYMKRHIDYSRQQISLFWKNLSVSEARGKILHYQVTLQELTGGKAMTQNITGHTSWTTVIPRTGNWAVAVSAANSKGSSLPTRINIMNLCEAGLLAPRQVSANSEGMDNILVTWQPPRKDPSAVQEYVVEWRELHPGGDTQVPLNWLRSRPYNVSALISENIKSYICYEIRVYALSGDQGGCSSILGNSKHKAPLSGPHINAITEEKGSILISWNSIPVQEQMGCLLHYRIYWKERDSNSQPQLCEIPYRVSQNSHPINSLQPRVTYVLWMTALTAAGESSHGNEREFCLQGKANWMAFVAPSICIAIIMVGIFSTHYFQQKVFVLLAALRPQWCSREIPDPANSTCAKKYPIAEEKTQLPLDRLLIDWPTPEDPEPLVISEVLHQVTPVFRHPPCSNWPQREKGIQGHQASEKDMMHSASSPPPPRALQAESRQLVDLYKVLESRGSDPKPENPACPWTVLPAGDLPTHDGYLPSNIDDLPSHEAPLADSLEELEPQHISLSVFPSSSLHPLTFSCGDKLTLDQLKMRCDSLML

Binder	IL-12 signal transduction, % of rIL-12, HEK-IL-12-PD-1 cells [1]	IL-12 signal transduction, % of rIL-12, HEK-IL-12 cells [2]	Kd (mouse PD-1)	Kd (human PD-1)
PD-L1(mut2)-Fc/IL-12(E59A/F60A) (Fc fusion) chain 1: FTVTVPKDLYVVEYGSNMTIECKFPVEKQLDLAALQVYWMMEDKNIIQFVHGEEDLKVQHSSYRQRARLLKDQLSLGNAALQITDVKLQDAGVYTCLIAYKGADYKRITVKVNAPYNKINQRILVVDPVTSEHELTCQAEGYPKAEVIWTSSDHQVLSGKTTTTNSKREEKLFNVTSTLRINTTTNEIFYCTFRRLDPEENHTAELVIPELPLAHPPNERGGGGSGGGDKTHTCPPCPAPEDEGGPSVFLFPPKPKDTLMISRTPEVTCVVVDVSHEDPEVKFNWYVDGVEVHNAKTKPREEQYNSTYRVVSVLTVLHQDWLNGKEYKCKVSNKALPAPIEKTISKAKGQPREPQVYVYPPSREEMTKNQVSLTCLVKGFYPSDIAVEWESNGQPENNYKTTPPVLDEDGSFALVSKLTVDKSRWQQGNVFSCSVMHEALHNHYTQKSLSLSPGKGGGGSGGGIWELKKDVYVVELDWYPDAPGEMVVLTCDTPEEDGITWTLDQSSEVLGSGKTLTIQVKAAGDAGQYTCHKGGEVLSHSLLLLHKKEDGIWSTDILKDQKEPKNKTFLRCEAKNYSGRFTCWWLTTISTDLTFSVKSSRGSSDPQGVTCGAATLSAERVRGDNKEYEYSVECQEDSACPAAEESLPIEVMVDAVHKLKYENYTSSFFIRDIIKPDPPKNLQLKPLKNSRQVEVSWEYPDTWSTPHSYFSLTFCVQVQGKSKREKKDRVFTDKTSATVICRKNASISVRAQDRYYSSSWSEWASVPCSGGGGSGGGSGGGGSRNLPVATPDPGMFPCLHHSQNLLRAVSNMLQKARQTLEFYPCTSEEIDHEDITKDKTSTVEACLPLELTKNESCLNSRETSFITNGSCLASRKTSFMMALCLSSIYEDLKMYQVEFKTMNAKLLMDPKRQIFLDQNMLAVIDELMQALNFNSETVPQKSSLEEPDFYKTKIKLCILLHAFRIRAVTIDRVMSYLNAS chain 2: FTVTVPKDLYVVEYGSNMTIECKFPVEKQLDLAALQVYWMMEDKNIIQFVHGEEDLKVQHSSYRQRARLLKDQLSLGNAALQITDVKLQDAGVYTCLIAYKGADYKRITVKVNAPYNKINQRILVVDPVTSEHELTCQAEGYPKAEVIWTSSDHQVLSGKTTTTNSKREEKLFNVTSTLRINTTTNEIFYCTFRRLDPEENHTAELVIPELPLAHPPNERGGGGSGGGDKTHTCPPCPAPEKKGGPSVFLFPPKPKDTLMISRTPEVTCVVVDVSHEDPEVKFNWYVDGVEVHNAKTKPREEQYNSTYRVVSVLTVLHQDWLNGKEYKCKVSNKALPAPIEKTISKAKGQPREPQVYVLPPSREEMTKNQVSLLCLVKGFYPSDIAVEWESNGQPENRYMTWPPVLDSDGSFFLYSKLTVDKSRWQQGNVFSCSVMHEALHNHYTQKSLSLSPGK	25%	1%	–	–
PD-L1(mut4)-Fc (Fc fusion, also called I54Q/E58M/M115L/S117A/G119K) chain 1: FTVTVPKDLYVVEYGSNMTIECKFPVEKQLDLAALQVYWMMEDKNIIQFVHGEEDLKVQHSSYRQRARLLKDQLSLGNAALQITDVKLQDAGVYRCLIAYKGADYKRITVKVNAPYNKINQRILVVDPVTSEHELTCQAEGYPKAEVIWTSSDHQVLSGKTTTTNSKREEKLFNVTSTLRINTTTNEIFYCTFRRLDPEENHTAELVIPELPLAHPPNERDKTHTCPPCPAPEDEGGPSVFLFPPKPKDTLMISRTPEVTCVVVDVSHEDPEVKFNWYVDGVEVHNAKTKPREEQYNSTYRVVSVLTVLHQDWLNGKEYKCKVSNKALPAPIEKTISKAKGQPREPQVYVYPPSREEMTKNQVSLTCLVKGFYPSDIAVEWESNGQPENNYKTTPPVLDEDGSFALVSKLTVDKSRWQQGNVFSCSVMHEALHNHYTQKSLSLSPGK chain 2: FTVTVPKDLYVVEYGSNMTIECKFPVEKQLDLAALQVYWMMEDKNIIQFVHGEEDLKVQHSSYRQRARLLKDQLSLGNAALQITDVKLQDAGVYRCLIAYKGADYKRITVKVNAPYNKINQRILVVDPVTSEHELTCQAEGYPKAEVIWTSSDHQVLSGKTTTTNSKREEKLFNVTSTLRINTTTNEIFYCTFRRLDPEENHTAELVIPELPLAHPPNERDKTHTCPPCPAPEKKGGPSVFLFPPKPKDTLMISRTPEVTCVVVDVSHEDPEVKFNWYVDGVEVHNAKTKPREEQYNSTYRVVSVLTVLHQDWLNGKEYKCKVSNKALPAPIEKTISKAKGQPREPQVYVLPPSREEMTKNQVSLLCLVKGFYPSDIAVEWESNGQPENRYMTWPPVLDSDGSFFLYSKLTVDKSRWQQGNVFSCSVMHEALHNHYTQKSLSLSPGK	–	–	980 nM	1090 nM

Second part, the binder after the results:

IL-12 signal transduction, % of rIL-12, HEK-IL-12-PD-1 cells [1]	IL-12 signal transduction, % of rIL-12, HEK-IL-12 cells [2]	Kd (mouse PD-1)	Kd (human PD-1)	Binder
–	–	120 nM	150 nM	PD-L1(mut2)-Fc (Fc fusion, also called PD-L1(I54Q/E58M/R113T/M115L/S117A/G119K)) chain 1: FTVTVPKDLYVVEYGSNMTIECKFPVEKQLDLAALQVYWMMEDKNIIQFVHGEEDLKVQHSSYRQRARLLKDQLSLGNAALQITDVKLQDAGVYTCLIAYKGADYKRITVKVNAPYNKINQRILVVDPVTSEHELTCQAEGYPKAEVIWTSSDHQVLSGKTTTTNSKREEKLFNVTSTLRINTTTNEIFYCTFRRLDPEENHTAELVIPELPLAHPPNERGGGGSGGGDKTHTCPPCPAPEDEGGPSVFLFPPKPKDTLMISRTPEVTCVVVDVSHEDPEVKFNWYVDGVEVHNAKTKPREEQYNSTYRVVSVLTVLHQDWLNGKEYKCKVSNKALPAPIEKTISKAKGQPREPQVYVYPPSREEMTKNQVSLTCLVKGFYPSDIAVEWESNGQPENNYKTTPPVLDEDGSFALVSKLTVDKSRWQQGNVFSCSVMHEALHNHYTQKSLSLSPGK chain 2: FTVTVPKDLYVVEYGSNMTIECKFPVEKQLDLAALQVYWMMEDKNIIQFVHGEEDLKVQHSSYRQRARLLKDQLSLGNAALQITDVKLQDAGVYTCLIAYKGADYKRITVKVNAPYNKINQRILVVDPVTSEHELTCQAEGYPKAEVIWTSSDHQVLSGKTTTTNSKREEKLFNVTSTLRINTTTNEIFYCTFRRLDPEENHTAELVIPELPLAHPPNERGGGGSGGGDKTHTCPPCPAPEKKGGPSVFLFPPKPKDTLMISRTPEVTCVVVDVSHEDPEVKFNWYVDGVEVHNAKTKPREEQYNSTYRVVSVLTVLHQDWLNGKEYKCKVSNKALPAPIEKTISKAKGQPREPQVYVLPPSREEMTKNQVSLLCLVKGFYPSDIAVEWESNGQPENRYMTWPPVLDSDGSFFLYSKLTVDKSRWQQGNVFSCSVMHEALHNHYTQKSLSLSPGK
–	–	820 nM	910 nM	PD-L1(mut3)-Fc (Fc fusion, also called I54Q/R113T/M115L/S117A/G119K) chain 1: FTVTVPKDLYVVEYGSNMTIECKFPVEKQLDLAALQVYWEMEDKNIIQFVHGEEDLKVQHSSYRQRARLLKDQLSLGNAALQITDVKLQDAGVYTCLIAYKGADYKRITVKVNAPYNKINQRILVVDPVTSEHELTCQAEGYPKAEVIWTSSDHQVLSGKTTTTNSKREEKLFNVTSTLRINTTTNEIFYCTFRRLDPEENHTAELVIPELPLAHPPNERDKTHTCPPCPAPEDEGGPSVFLFPPKPKDTLMISRTPEVTCVVVDVSHEDPEVKFNWYVDGVEVHNAKTKPREEQYNSTYRVVSVLTVLHQDWLNGKEYKCKVSNKALPAPIEKTISKAKGQPREPQVYVYPPSREEMTKNQVSLTCLVKGFYPSDIAVEWESNGQPENNYKTTPPVLDEDGSFALVSKLTVDKSRWQQGNVFSCSVMHEALHNHYTQKSLSLSPGK chain 2: FTVTVPKDLYVVEYGSNMTIECKFPVEKQLDLAALQVYWEMEDKNIIQFVHGEEDLKVQHSSYRQRARLLKDQLSLGNAALQITDVKLQDAGVYTCLIAYKGADYKRITVKVNAPYNKINQRILVVDPVTSEHELTCQAEGYPKAEVIWTSSDHQVLSGKTTTTNSKREEKLFNVTSTLRINTTTNEIFYCTFRRLDPEENHTAELVIPELPLAHPPNERDKTHTCPPCPAPEKKGGPSVFLFPPKPKDTLMISRTPEVTCVVVDVSHEDPEVKFNWYVDGVEVHNAKTKPREEQYNSTYRVVSVLTVLHQDWLNGKEYKCKVSNKALPAPIEKTISKAKGQPREPQVYVLPPSREEMTKNQVSLLCLVKGFYPSDIAVEWESNGQPENRYMTWPPVLDSDGSFFLYSKLTVDKSRWQQGNVFSCSVMHEALHNHYTQKSLSLSPGK

Source: US20230167164A1 (IMMUNOWAKE, published 2023)
